Data published in patent US20220073604A1 (ARGENX BVBA, published 2022).
Positions count from the first letter of the chain named. “And” between values parts separate entries of the source, which are not always exact repeats. Equal entries are not always repeated.

B1: Fab 42H1/36A1 (Fab, V domains shown)
VH: EVQLVESGGGLVQPGGSLRLSCAASGFTFSSYAMSWVRQAPGKGLEWVSAINSGGGSTSYADSVKGRFTISRDNAKNTLYLQMNSLKPEDTAVYYCAKEGDTGWKDPMYDYWGQGTQVTVSS
VL: AQSALTQPSALSVTLGQTAKITCQGGSLGTRYAHWYQQKPGQAPVLVIYDDDSRPSGIPERFSGSSSGGRATLTISGAQAEDEGDYYCQSADSSGNASVFGGGTHLTVLG
notes: VL-shuffled Fab of 18C11
B2: Fab 41E10/35B1 (Fab, V domains shown)
VH: EVQLQESGPGLVKPSQTLSLTCTVSGGSIATSYYAWSWIRQPPGKGLEWMGVIDYDGDTYYKPSLKSRTSISRDTSKNQFSLQLSSVTPEDTAVYYCARAGLGDSYYLGTYYAMDYWGKGTLVTVSS
VL: QAVLTQPPSMSGTLGKTLTISCNGTSSDIGSGNYVSWYQQLPGTTPKLLIEGVTTRVSGIPDRFSGSKSDNTASLTISGLQSEDEATYYCASYRETNNVVFGGGTHLTVLG
notes: VL-shuffled Fab of 17F10
B3: Fab 41B5/35C1 (Fab, V domains shown)
VH: B2 VH
VL: B2 VL with A2S, V3A, N33D, V57A, G66A, G111S
notes: VL-shuffled Fab of 17F10
B4: Fab 18C7 (Fab, V domains shown)
VH: EVQLVESGPGLVKPSQTLSLTCTVSGGSITASFDAWSWIRQPPGKGLEWMGVIAYDGSTYYSPSLKSRTSISRDTSKNQFSLQLSSVTPEDTAVYYCARKSSWLIGYGMDYWGKGTLVTVSS
VL: QAGLTQPSALSVTLGQTAKITCQGGSLGSSYAHWYQQKPGQAPVLVIYDDDSRPSGIPERFSGSSSGGRATLTISGAQAEDEGDYYCQSADSSGNAAVFGGGTHLTVLG
notes: Fab; also called 18C7 (090-423)
B5: Fab 20A4 (Fab, V domains shown)
VH: EVQLQESGPGLVKPSQTLSLTCTVSGGSITTRYYAWSWIRQPPGKGLEWMGVIDYDGDTYYSPSLKSRTSISWDTSKNQFSLQLSSVTPEDTAVYYCARDPDVVTGFHYDYWGQGTQVTVSS
VL: LNFMLTQPPSVSGTLGKTVTISCAGTSSDIGGYNYVSWYQQLPGTAPKLLIHRVSTRASGIPDRFSGSKSGNTASLTISGLRSEDEANYYCASYRNFNNAVFGGGTQLTVLG
notes: Fab
B6: Fab 18C11 (Fab, V domains shown)
VH: B1 VH
VL: B4 VL with A2S, G3V, L4V, S26G, G28R
notes: Fab
B7: 111A7_SDM2_M100A (antibody, V domains shown)
VH: EVQLLESGGGLVQPGGSLRLSCAASGFTFSSYAMSWVRQAPGKGPEWVSRISAGGGSTYYGDSVKGRFTISRDNSKNTLYLQMNSLRAEDTAVYYCANRAGWGAGDYWGQGTLVTVSS
VL: QTVVTQEPSFSVSPGGTVTLTCGLSSGSVTASNYPGWYQQTPGQAPRALIYSTNDRHSGVPDRFSGSISGNKAALTITGAQAEDEADYYCALDIGDITEFGGGTQLTVL
B8: 133A9 (germlined variant of 68F2) (antibody, V domains shown)
VH: B5 VH with M50I, D56E, T69V, S70T, W73V, Q83K, P89A, Q117M
VL: QSALTQPPLVSGSPGQTVTISCAGANNDIGTYAYVSWYQQPPGTAPKLMIYKVTTRASGIPDRFSGSISGNTASLTISGLQSEDEADYYCASYRNFNNAVFGTGTKLTVL
B9: Fab 18C9 (Fab, V domains shown)
VH: B1 VH with S31R, Y32N, D101Y
VL: B1 VL with A1L, Q2N, S3F, A4M, T30S, E83D
notes: Fab
B10: Fab 24E9 (Fab, V domains shown)
VH: EVQLVESGGGLVQPGGSLRLSCAASGFTFSTYAMSWVRQAPGKGPEWVSRISSGGGSTNYADSVKGRFTISRDNAKKTLYLQMKSLKPEDTAVYYCANRAGWGMGDYWGQGTQVTVSS
VL: QTVVTQEPSLSVSPGGTVTLTCGLSSGSVTASNYPGWFQQTPGQAPRALIYSTNDRHSGVPSRFSGSISGNKAALTITGAQPEDEADYYCALDIGDITEFGGGTHLTVLG
notes: Fab
B11: Fab 24C9 (Fab, V domains shown)
VH: QVQLVESGGGLVQPGGSLRLSCAASGFTFSSYRMYWVRQPPGKGLEWVSAISAGGGSTYYGDSVKGRFTISRDNAKNTVYLQMNSLKPEDTALYYCKKSTWADGESDYWGQGTQVTVSS
VL: B10 VL
notes: Fab
B12: Fab 29B11 (Fab, V domains shown)
VH: EVQLVESGGGLVQPGGSLRLSCAASGFTFSSYAMSWVRQAPGKGLEWVSRISSGGISTYYADSVKGRFTISRDNAKNTLYLQMNSLKPEDTAVYYCVRYAWGVQWAFDFWGQGTQVTVSS
VL: QSVLTQPPSVSGSPGQTVTISCAGTSEDVGYGNYVSWYQQLPGMAPKLLIYDVNKRASGIADRFSGSKSGNTASLTISGLQSEDEADYYCASYRRTIDNIFGGGTHLTVLG
notes: Fab
B13: Fab 48C10 (Fab, V domains shown)
VH: B12 VH
VL: AQSVLTQPPSVSGSPGQTVTISCAGTSEDVGYGNYVSWYQQLPGMAPKLLIYDVNKRASGIADRFSGSKSGNTASLTISGLQSEDEADYYCASYRRTIDNIFGGGTHLTVLG
notes: VL-shuffled Fab of 29B11, periplasmic fraction

target: T1, bacterially produced human IL-6 (human, UniProt P05231 30-212); assay: SPR; purified Fab
T1 construct: also called bactIL-6; prokaryotic IL-6

Row | Kd [nM] | koff [s⁻¹] | Binder
1 | 0.75 | 0.00015 | B1
2 | 0.54 | 0.00016 | B2
3 | 0.47 | 0.00011 | B3
4 | 9.1 | 0.0011 | B4
5 | 2 | 0.00062 | B5

target: T2, cynomolgus monkey IL-6 (cynomolgus monkey, UniProt P79341 28-212, limits assumed); assay: SPR; purified Fab
T2 construct: also called HIS-cyIL-6

Row | Kd | koff | Binder
6 | 0.69 nM | 0.00015 s⁻¹ | B1
7 | 0.34 nM | 0.00012 s⁻¹ | B2
8 | 0.28 nM and 0.72 nM | 8.1e-05 s⁻¹ and 0.00017 s⁻¹ | B3
9 | 5.3 nM and 4.9 nM | 0.00063 s⁻¹ and 0.00069 s⁻¹ | B4
10 | 3.4 nM | 0.00085 s⁻¹ | B6
11 | 1.7 nM | 0.00075 s⁻¹ | B5

target: T3, eukaryotically produced human IL-6 (human, UniProt P05231 30-212); assay: SPR; purified Fab
T3 construct: also called eukIL-6; Euk IL-6

Row | Kd | koff | Binder
12 | 0.34 nM | 0.00011 s⁻¹ | B1
13 | 0.46 nM | 0.00016 s⁻¹ | B2
14 | 0.41 nM and 0.92 nM | 0.00012 s⁻¹ and 0.0002 s⁻¹ | B3
15 | 7.7 nM and 5.2 nM | 0.001 s⁻¹ and 0.00082 s⁻¹ | B4
16 | 2.9 nM | 0.00076 s⁻¹ | B6
17 | 0.81 nM | 0.0003 s⁻¹ | B5

target: human IL-6 (as added in the B9 and 7TD1 bioassays) (human, UniProt P05231 30-212); assay: cell-based or functional assay

Row | Binder | IC50, 7TD1 cells [nM] | Potency relative to 68F2, 7TD1 cells
18 | B7 | 0.00157 | 0.43
19 | B8 | 0.00018 | 3.66

target: T1, bacterially produced human IL-6; assay: SPR; purified Fab over biotinylated IL-6 on streptavidin chip
Experimental: (§1) From the washing phase the off-rate (kd) was determined, while from the injection phase the on-rate (ka) was calculated using the concentration and off-rate as parameters.

Row | Ka [M⁻¹] | Kd [nM] | koff [s⁻¹] | kon [M⁻¹ s⁻¹] | Binder
20 | 4.67e+07 | 21.4 | 0.00119 | 55600 | B9
21 | 8.38e+08 | 1.19 | 0.000139 | 117000 | B10
22 | 1.51e+09 | 0.661 | 8.77e-05 | 133000 | B11
23 | 4.36e+07 | 22.9 | 0.00298 | 130000 | B12
24 | 5.7e+07 | 17.5 | 0.00185 | 105000 | B4
25 | 7.05e+07 | 14.2 | 0.000784 | 55200 | B6
26 | 1.72e+08 | 5.82 | 0.00168 | 288000 | B5

target: T1, bacterially produced human IL-6; assay: SPR; periplasmic fraction

Row | Ka [M⁻¹] | Kd [nM] | koff [s⁻¹] | kon [M⁻¹ s⁻¹] | Binder
27 | 1.91e+09 | 0.524 | 0.000131 | 251000 | B12
28 | 1.43e+09 | 0.701 | 0.000184 | 262000 | B13

target: T2, cynomolgus monkey IL-6; assay: SPR; periplasmic fraction

Row | Ka [M⁻¹] | Kd [nM] | koff [s⁻¹] | kon [M⁻¹ s⁻¹] | Binder
29 | 1.51e+08 | 6.61 | 0.000746 | 113000 | B12
30 | 4.1e+08 | 2.44 | 0.00044 | 180000 | B13

target: T3, eukaryotically produced human IL-6; assay: SPR; periplasmic fraction

Row | Ka [M⁻¹] | Kd [nM] | koff [s⁻¹] | kon [M⁻¹ s⁻¹] | Binder
31 | 1.83e+09 | 0.546 | 0.000102 | 187000 | B12

target: T1, bacterially produced human IL-6; assay: SPR; purified Fab; IL-6 coated on CM5 chip
Experimental: as §1

Row | Kd [nM] | koff [s⁻¹] | Binder
32 | 4.9 | 0.00036 | B9
33 | 0.93 | 0.00029 | B10
34 | 2.6 | 0.00037 | B11
35 | 0.93 | 0.00022 | B12
36 | 9.1 | 0.0011 | B4
37 | 2 | 0.00062 | B5

target: T3, eukaryotically produced human IL-6; assay: SPR; purified Fab; IL-6 coated on CM5 chip
Experimental: as §1

Row | Kd [nM] | koff [s⁻¹] | Binder
38 | 2.4 | 0.00021 | B9
39 | 0.71 | 0.00024 | B10
40 | 1.7 | 0.0003 | B11
41 | 0.51 | 0.0001 | B12
42 | 7.7 | 0.001 | B4
43 | 0.81 | 0.0003 | B5

target: T1, bacterially produced human IL-6; assay: SPR; periplasmic fraction; against parental 29B11

Row | fold improvement KD [fold] | fold improvement ka [fold] | fold improvement kd [fold] | Binder
44 | 0.75 | 1.04 | 0.71 | B13

target: T2, cynomolgus monkey IL-6; assay: SPR; periplasmic fraction; against parental 29B11

Row | fold improvement KD [fold] | fold improvement ka [fold] | fold improvement kd [fold] | Binder
45 | 2.71 | 1.59 | 1.7 | B13
